Measured values from article PMC13049513, “Assembly of a homohexameric minichromosome maintenance complex is dependent on ATP and DNA” (The Journal of Biological Chemistry, 2025).
Each block holds one molecule with its values, some of them ahead of it.

Experiments:
MacMCM^ΔWHD [1] = target: T1, MacMCM^ΔWHD (Candidatus Mancarchaeum acidiphilum, UniProt A0A218NN99, E391Q, form not given); test: X-ray crystal structure, […] Å; assay type: binding; details: crystals grown with 10 mM ATP and 10 mM MgCl2; nucleotide modelled as ADP; ATPase site at subunit interface, five of six sites
T1 construct: gene Mia14_0611

[2] = target: MacMCM R543E (minus-SB mutant); test: analytical size-exclusion chromatography (SEC), self-association; details: Protein samples (10 μM); Superdex S200 Increase 10/300 GL; UV absorbance at 280 nm; parent: est. 13.1; read off a plot
[3] = target: MacMCM^E391Q, Walker B mutant of MacMCM (Mancarchaeum acidiphilum); test: SEC; analytical SEC, Superose 6 Increase 10/300 GL, 200 mM NaCl, 20 mM Tris pH 8.0, 5% glycerol; protein 10 uM with equimolar fluorescein-polyT50 ssDNA; 1 mM ATP and 10 mM MgCl2 in the buffer
MacMCM = target: T2, MacMCM (Candidatus Mancarchaeum acidiphilum, UniProt A0A218NN99, E391Q); test: analytical SEC: ATP-dependent hexamer formation with ssDNA; assay type: binding; details: 1 mM ATP, 10 mM MgCl2, FAM-polyT50 ssDNA, pH 8.0; Walker B mutant, no ATP hydrolysis
T2 construct: gene Mia14_0611; full length, codon-optimised gene, N-terminal His10 tag cut with TEV protease, from E. coli BL21(DE3) pLysS; monomer without ligands, homohexamer with ATP and DNA

MacMCM^ΔWHD [4] = target: T1, MacMCM^ΔWHD; test: as above; assay type: binding; details: 1 mM ATP, 10 mM MgCl2, FAM-polyT50 ssDNA, pH 8.0; Walker B mutant, no ATP hydrolysis
[5] = test system: MacMCM E391Q (Mancarchaeum acidophilum); test: fluorescence anisotropy; details: Anisotropy: 250 mM potassium glutamate, 20 mM Tris pH 8.0, 1 nM forked DNA, with 4 mM nucleotide and 10 mM MgCl2 where present; temperature not stated (EMSA …)
[6] = test system: MacMCMΔWHD E391Q (Mancarchaeum acidophilum), PDB:8Q67_1; test: fluorescence anisotropy; details: Anisotropy: 250 mM potassium glutamate, 20 mM Tris pH 8.0, 1 nM forked DNA, with 4 mM nucleotide and 10 mM MgCl2 where present; temperature not stated (EMSA …)
[7] = target: SsoNPfuCMCM, chimeric MCM of the N-terminal domain of SsoMCM fused with the ATPase domain of PfuMCM (Sulfolobus solfataricus | not stated) (UniProt Q9UXG1); test: SEC-MALS; SEC-MALLS, Superose S6 Increase 10/300 GL, 200 mM KCl, 50 mM Tris-Cl pH 8.0, 5% glycerol, 0.5 mM DTT; 100 ul protein at 1 to 10 mg/ml; no ligands
[8] = target: MacMCM, minichromosome maintenance protein from Mancarchaeum acidiphilum (Mancarchaeum acidiphilum); test: SEC; analytical SEC, Superose 6 Increase 10/300 GL, 200 mM NaCl, 20 mM Tris pH 8.0, 5% glycerol; protein 10 uM with equimolar fluorescein-polyT50 ssDNA; 1 mM ATP and 10 mM MgCl2 in the buffer
[9] = target: MacMCM D311K (minus-SB mutant); test: analytical size-exclusion chromatography (SEC), self-association; details: Protein samples (10 μM); Superdex S200 Increase 10/300 GL; UV absorbance at 280 nm; parent: est. 13.1; read off a plot
[10] = target: MacMCM^ΔWHD.E391Q, MacMCM lacking the C-terminal winged-helix domain with the Walker B mutation E391Q (Mancarchaeum acidiphilum); test: crystal structure; MacMCM^ΔWHD.E391Q crystallised with 10 mM ATP and 10 mM MgCl2, 20 °C; ADP and phosphate in the active sites; 2.59 Å
[11] = target: MacMCM^ΔWHD.E391Q, MacMCM lacking the C-terminal winged-helix domain with the Walker B mutation E391Q (Mancarchaeum acidiphilum); test: SEC; analytical SEC, Superose 6 Increase 10/300 GL, 200 mM NaCl, 20 mM Tris pH 8.0, 5% glycerol; protein 10 uM with equimolar fluorescein-polyT50 ssDNA; 1 mM ATP and 10 mM MgCl2 in the buffer
[12] = target: MacMCM NDSK (plus-SB mutant N484D–S532K); test: analytical size-exclusion chromatography (SEC), self-association; details: Protein samples (10 μM); Superdex S200 Increase 10/300 GL; UV absorbance at 280 nm; parent: est. 13.1; read off a plot
[13] = target: MacMCM triple site minus-SB mutant (D311K, D366K, R543E); test: as above; details: Protein samples (10 μM); Superdex S200 Increase 10/300 GL; UV absorbance at 280 nm; parent: est. 13.1; read off a plot
[14] = target: MacMCM D366K (minus-SB mutant); test: as above; details: Protein samples (10 μM); Superdex S200 Increase 10/300 GL; UV absorbance at 280 nm; parent: est. 13.1; read off a plot
[15] = target: MacMCM KRED (plus-SB mutant K476R–E537D); test: as above; details: Protein samples (10 μM); Superdex S200 Increase 10/300 GL; UV absorbance at 280 nm; parent: est. 13.1; read off a plot
[16] = target: MacMCM DNEK (plus-SB mutant D59N–E61K); test: as above; details: Protein samples (10 μM); Superdex S200 Increase 10/300 GL; UV absorbance at 280 nm; parent: est. 13.1; read off a plot
[17] = target: T3, MacMCM triple-site plus-SB mutant (D59N–E61K, K476R–E537D, N484D–S532K); test: as above; details: chain shown with the change; Protein samples (10 μM); Superdex S200 Increase 10/300 GL; UV absorbance at 280 nm; parent: est. 13.1; read off a plot
T3 chain: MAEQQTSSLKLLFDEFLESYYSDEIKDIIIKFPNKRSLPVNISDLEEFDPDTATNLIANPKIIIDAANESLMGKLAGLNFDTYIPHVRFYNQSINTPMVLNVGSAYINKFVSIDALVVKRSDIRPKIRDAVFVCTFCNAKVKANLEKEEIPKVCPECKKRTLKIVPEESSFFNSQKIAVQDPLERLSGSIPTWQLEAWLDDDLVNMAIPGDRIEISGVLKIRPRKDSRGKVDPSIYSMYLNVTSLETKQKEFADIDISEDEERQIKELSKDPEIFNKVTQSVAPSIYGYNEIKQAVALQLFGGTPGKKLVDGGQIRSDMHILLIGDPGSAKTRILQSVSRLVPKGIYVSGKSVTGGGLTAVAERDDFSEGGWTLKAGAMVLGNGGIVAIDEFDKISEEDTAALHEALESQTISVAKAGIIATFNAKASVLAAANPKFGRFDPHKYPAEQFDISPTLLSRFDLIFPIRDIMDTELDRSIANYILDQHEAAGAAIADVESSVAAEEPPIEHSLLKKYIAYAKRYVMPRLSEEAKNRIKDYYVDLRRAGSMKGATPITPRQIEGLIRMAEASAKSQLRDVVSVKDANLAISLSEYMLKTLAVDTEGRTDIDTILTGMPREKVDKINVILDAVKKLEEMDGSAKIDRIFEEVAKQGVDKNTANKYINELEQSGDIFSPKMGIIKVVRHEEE

T1 sequence (A0A218NN99 entry or part of it E391Q, form open): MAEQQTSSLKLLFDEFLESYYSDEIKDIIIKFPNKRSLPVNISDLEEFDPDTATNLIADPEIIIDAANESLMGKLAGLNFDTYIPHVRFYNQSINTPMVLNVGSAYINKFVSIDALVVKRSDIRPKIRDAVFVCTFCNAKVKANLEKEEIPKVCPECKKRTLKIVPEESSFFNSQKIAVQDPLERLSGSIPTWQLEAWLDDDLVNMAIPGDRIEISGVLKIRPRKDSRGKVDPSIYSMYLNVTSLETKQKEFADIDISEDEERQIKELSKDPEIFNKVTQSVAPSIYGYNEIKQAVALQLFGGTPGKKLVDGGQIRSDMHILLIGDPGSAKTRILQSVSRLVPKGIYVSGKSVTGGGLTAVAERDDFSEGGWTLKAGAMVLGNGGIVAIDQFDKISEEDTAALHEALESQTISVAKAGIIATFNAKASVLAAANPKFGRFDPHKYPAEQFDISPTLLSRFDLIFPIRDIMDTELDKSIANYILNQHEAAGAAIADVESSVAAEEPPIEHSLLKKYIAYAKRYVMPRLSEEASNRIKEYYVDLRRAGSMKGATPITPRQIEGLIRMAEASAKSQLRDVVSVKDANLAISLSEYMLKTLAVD
T2 sequence (A0A218NN99 entry or part of it E391Q): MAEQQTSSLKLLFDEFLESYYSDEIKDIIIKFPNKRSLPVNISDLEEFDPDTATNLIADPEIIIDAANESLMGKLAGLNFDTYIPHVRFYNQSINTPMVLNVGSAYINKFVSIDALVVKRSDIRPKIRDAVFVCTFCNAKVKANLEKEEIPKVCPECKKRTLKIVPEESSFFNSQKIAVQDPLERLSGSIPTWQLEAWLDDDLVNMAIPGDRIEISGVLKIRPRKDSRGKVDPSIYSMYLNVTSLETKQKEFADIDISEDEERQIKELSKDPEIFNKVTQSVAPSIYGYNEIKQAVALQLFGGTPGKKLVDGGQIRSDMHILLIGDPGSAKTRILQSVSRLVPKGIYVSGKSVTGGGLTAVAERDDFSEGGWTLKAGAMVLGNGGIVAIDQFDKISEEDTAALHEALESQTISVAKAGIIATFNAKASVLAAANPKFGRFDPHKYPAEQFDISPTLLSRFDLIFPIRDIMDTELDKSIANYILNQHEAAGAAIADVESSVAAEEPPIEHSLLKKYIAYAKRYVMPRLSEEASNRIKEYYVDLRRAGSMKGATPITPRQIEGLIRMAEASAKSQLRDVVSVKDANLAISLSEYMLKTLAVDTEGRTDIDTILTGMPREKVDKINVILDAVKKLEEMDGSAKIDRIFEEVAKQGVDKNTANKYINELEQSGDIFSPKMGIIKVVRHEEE

Molecule: Nc1ncnc2c1ncn2[C@@H]1O[C@H](COP(=O)(O)OP(=O)(O)O)[C@@H](O)[C@H]1O [ADP]
- X-ray crystal structure, 2.6 Å (MacMCM^ΔWHD [1]): ADP was identified in five of the six ATPase active sites

Molecule: MacMCM, minichromosome maintenance protein from Mancarchaeum acidiphilum R543E
- other: SEC peak retention volume [2]: 13.3 mL

Molecule: Nc1ncnc2c1ncn2[C@@H]1O[C@H](COP(=O)(O)OP(=O)(O)OP(=O)(O)O)[C@@H](O)[C@H]1O [ATP]
- analytical SEC: ATP-dependent hexamer formation with ssDNA (MacMCM): both MacMCM^E391Q and MacMCM^ΔWHD.E391Q coeluted with ssDNA at elution volumes consistent with a homohexamer
- analytical SEC: ATP-dependent hexamer formation with ssDNA (MacMCM^ΔWHD [4]): both MacMCM^E391Q and MacMCM^ΔWHD.E391Q coeluted with ssDNA at elution volumes consistent with a homohexamer

Molecule: GGGACGCGTCGGCCTGGCACGTCGGCCGCTGCGGCCAGGCACCCGATGGCGTTTGTTTGTTTGTTTGTTTGTTT / TTTGTTTGTTTGTTTGTTTGTTTGTTTGTTTGCCGACGTGCCAGGCCGACGCGTCCC [forked DNA]
- Kd [5]: 780 nM
- Kd [6]: 114 nM

Molecule: SsoNPfuCMCM, chimeric MCM of the N-terminal domain of SsoMCM fused with the ATPase domain of PfuMCM (from UniProt Q9UXG1 2-321) (enzyme)
- stoichiometry N [7]: 6

Molecule: MacMCM, minichromosome maintenance protein from Mancarchaeum acidiphilum D311K
- other: SEC peak retention volume [9]: 13.4 mL

Molecule: MacMCM^ΔWHD.E391Q, MacMCM lacking the C-terminal winged-helix domain with the Walker B mutation E391Q (domain or fragment)
- stoichiometry N [10]: 6
- stoichiometry N [11]: 6

Molecule: MacMCM, minichromosome maintenance protein from Mancarchaeum acidiphilum N484D; S532K
- other: SEC peak retention volume [12]: 13 mL

B1: MacMCM, minichromosome maintenance protein from Mancarchaeum acidiphilum D59N; E61K; K476R; E537D; N484D; S532K (protein)
chain: MAEQQTSSLKLLFDEFLESYYSDEIKDIIIKFPNKRSLPVNISDLEEFDPDTATNLIANPKIIIDAANESLMGKLAGLNFDTYIPHVRFYNQSINTPMVLNVGSAYINKFVSIDALVVKRSDIRPKIRDAVFVCTFCNAKVKANLEKEEIPKVCPECKKRTLKIVPEESSFFNSQKIAVQDPLERLSGSIPTWQLEAWLDDDLVNMAIPGDRIEISGVLKIRPRKDSRGKVDPSIYSMYLNVTSLETKQKEFADIDISEDEERQIKELSKDPEIFNKVTQSVAPSIYGYNEIKQAVALQLFGGTPGKKLVDGGQIRSDMHILLIGDPGSAKTRILQSVSRLVPKGIYVSGKSVTGGGLTAVAERDDFSEGGWTLKAGAMVLGNGGIVAIDEFDKISEEDTAALHEALESQTISVAKAGIIATFNAKASVLAAANPKFGRFDPHKYPAEQFDISPTLLSRFDLIFPIRDIMDTELDRSIANYILDQHEAAGAAIADVESSVAAEEPPIEHSLLKKYIAYAKRYVMPRLSEEAKNRIKDYYVDLRRAGSMKGATPITPRQIEGLIRMAEASAKSQLRDVVSVKDANLAISLSEYMLKTLAVDTEGRTDIDTILTGMPREKVDKINVILDAVKKLEEMDGSAKIDRIFEEVAKQGVDKNTANKYINELEQSGDIFSPKMGIIKVVRHEEE
- other: SEC peak retention volume [17]: 11.6 mL

More lines, now with the values ahead:

- stoichiometry N [3]: 6
Molecule: MacMCM^E391Q, Walker B mutant of MacMCM (enzyme)

- stoichiometry N [8]: 6
Molecule: MacMCM, minichromosome maintenance protein from Mancarchaeum acidiphilum (enzyme)

- other: SEC peak retention volume [13]: 13.3 mL
Molecule: MacMCM, minichromosome maintenance protein from Mancarchaeum acidiphilum D311K; D366K; R543E

- other: SEC peak retention volume [14]: 13.4 mL
Molecule: MacMCM, minichromosome maintenance protein from Mancarchaeum acidiphilum D366K

- other: SEC peak retention volume [15]: 13.3 mL
Molecule: MacMCM, minichromosome maintenance protein from Mancarchaeum acidiphilum K476R; E537D

- other: SEC peak retention volume [16]: 12.9 mL
Molecule: MacMCM, minichromosome maintenance protein from Mancarchaeum acidiphilum D59N; E61K
